Experimental findings from US6177078A (Medvet Science Pty Limited, priority 1995, dated 2001) are described below.

One assay addresses T1, IL-3R α and β chains (Homo sapiens, UniProt P26951).
T1 construct: expressed in transfected cells; host or cells: COS (monkey fibroblast) cells, transient co-transfection
T1 sequence (P26951 19-378): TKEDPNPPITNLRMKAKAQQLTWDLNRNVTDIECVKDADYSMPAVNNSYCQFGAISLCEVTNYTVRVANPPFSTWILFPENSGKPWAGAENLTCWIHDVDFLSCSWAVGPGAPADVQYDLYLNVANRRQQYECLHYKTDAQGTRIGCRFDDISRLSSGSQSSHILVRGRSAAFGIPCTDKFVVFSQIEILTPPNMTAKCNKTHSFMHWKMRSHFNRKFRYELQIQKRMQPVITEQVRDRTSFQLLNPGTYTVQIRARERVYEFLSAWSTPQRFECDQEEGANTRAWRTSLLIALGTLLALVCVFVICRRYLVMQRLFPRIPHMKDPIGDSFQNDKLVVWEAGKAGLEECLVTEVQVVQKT
The assay is described as follows: Competition for 125I-7G3 binding to COS cells expressing IL-3R α and β chains by IL-3 or GM-CSF. The following applies: COS cells transfected with IL-3Rα and β chain, preincubated, 1 nM 125I-7G3.

A further assay concerns the target T2, IL-3Rα chain (Homo sapiens, UniProt P26951).
T2 construct: expressed in transfected cells
T2 sequence (P26951 19-378): T1 sequence (P26951 19-378)
The assay is described as follows: Competition for 125I-7G3 binding to F6 cells by IL-3 or GM-CSF. The following applies: F6 cells expressing IL-3Rα chain alone, preincubated, 1 nM 125I-7G3.

Procedure for IL-3R α and β chains: (§1) The binding curve was analysed by Scatchard transformation.^31 In competition binding experiments F6 cells or COS cells co-expressing IL-3R α and β chains were preincubated for 2 hours at 4° C. with a range of concentrations of IL-3 or GM-CSF before adding 1 nM of ^125 I-7G3 for a further 2 hours.
Procedure for IL-3Rα chain: as §1

On to “GM-CSF: GM-CSF, a gift from Genetics Institute”, for which the “inhibition of 125I-7G3 binding to the IL-3R” value is recorded as “not” with IL-3R α and β chains; “not” in the assay with IL-3Rα chain.
